Results from the RNAGym collection of RNA variant scans (doi:10.7554/elife.80360).

B1: Twister Ribozyme (parent)
chain: AACACUGCCAAUGCCGGUCCCAAGCCCGGAUAAAAGUGGAGGGGGCGG

Variants of: B1
Assay: self-cleavage, relative activity (ratio to wild type); higher = more cleavage; co-transcriptional

Row | Variant | self-cleavage
1 | AACACUGGCAAUGCCGGUCCCAAGCCCGGAUAAAAGUGGUGGGGGCGG [C8G A40U] | 0.0905
2 | AACACUGGCAAUGCCGGUCCCAAGCCCGGAUAAAAGUGGCGGGGGCGG [C8G A40C] | 0.157
3 | AACACUGGCAAUGCCGGUCCCAAGCCCGGAUACAAGUGGAGGGGGCGG [C8G A33C] | 0.203
4 | AACACUGUCAAUGCCGGUCCCAAGCCCGCAUAAAAGUGGAGGGGGCGG [C8U G29C] | 0.117
5 | AACACUGUCAAUUCCGGUCCCAAGCCCGGAUAAAAGUGGAGGGGGCGG [C8U G13U] | 0.103
6 | AACACUGGCAAUGCCGGUCCCAAGCCCGGAUAAAAGUGGAGGGGGCCG [C8G G47C] | 0.186
7 | AACACUGGCAAUGCCGGUCCCAAGCCCGGAUAAAAGUGGAGGGGGCUG [C8G G47U] | 0.142
8 | AACACUGGCAAUGCCGGUCCCAAGCCCGGAUAAAAGUGGAGGGGGCAG [C8G G47A] | 0.208
9 | AACACUGUCAAUGCCGGUCCCAAGCCCGGAUAAAGGUGGAGGGGGCGG [C8U A35G] | 0.559
10 | AACACUGGCAAUGCCGGUGCCAAGCCCGGAUAAAAGUGGAGGGGGCGG [C8G C19G] | 0.0626
11 | AACACUGGCAAUGCCGGUACCAAGCCCGGAUAAAAGUGGAGGGGGCGG [C8G C19A] | 0.0465
12 | AACACUGUCAAUGCCGGUCCCAAGCCCGGAUAAAAGUAGAGGGGGCGG [C8U G38A] | 0.572
13 | AACACUGUCAAUGCCGGUCCCAAGCCCGGAUAAAAGUUGAGGGGGCGG [C8U G38U] | 0.481
14 | AACACUGGCAAUGCCGGUCCCAAGCCCGGAUAAAACUGGAGGGGGCGG [C8G G36C] | 0.119
15 | AACACUGUCAAUGCCUGUCCCAAGCCCGGAUAAAAGUGGAGGGGGCGG [C8U G16U] | 0.459
16 | AACACUGUCAAUGCCAGUCCCAAGCCCGGAUAAAAGUGGAGGGGGCGG [C8U G16A] | 0.442
17 | AACACUGUCAAUGCCCGUCCCAAGCCCGGAUAAAAGUGGAGGGGGCGG [C8U G16C] | 0.199
18 | AACACUGUCAAUGCCGGUCCCAAGCGCGGAUAAAAGUGGAGGGGGCGG [C8U C26G] | 0.0721
19 | AACACUGUCAAUGCCGGUCCCAAGCUCGGAUAAAAGUGGAGGGGGCGG [C8U C26U] | 0.061
20 | AACACUGGCAAUGCCGGUCCCAAGCCCGGAUAAAAGUUGAGGGGGCGG [C8G G38U] | 0.158
21 | AACACUGGCAAUGCCGGUCCCAAGCCCGGAUAAAAGUCGAGGGGGCGG [C8G G38C] | 0.145
22 | AACACUGUCAAUGCCGGUCCCAUGCCCGGAUAAAAGUGGAGGGGGCGG [C8U A23U] | 0.078
23 | AACACUGUCAAUGCCGGUCCCAGGCCCGGAUAAAAGUGGAGGGGGCGG [C8U A23G] | 0.107
24 | AACACUGUCAGUGCCGGUCCCAAGCCCGGAUAAAAGUGGAGGGGGCGG [C8U A11G] | 0.551
25 | AACACUGUCAAUGCCGGUCCAAAGCCCGGAUAAAAGUGGAGGGGGCGG [C8U C21A] | 0.0385
26 | AACACUGGCAAUGCCGGUCCCAAGCCCGGAUAAAAGUGGAAGGGGCGG [C8G G41A] | 0.179
27 | AACACUGGCAAUGCCGGUCCCAAGCCCGGAUAAAAGUGGACGGGGCGG [C8G G41C] | 0.122

Row | Variant | self-cleavage
28 | AACACUGUCAAUGCCGGUGCCAAGCCCGGAUAAAAGUGGAGGGGGCGG [C8U C19G] | 0.0901
29 | AACACUGUCAAUGCCGGUACCAAGCCCGGAUAAAAGUGGAGGGGGCGG [C8U C19A] | 0.0797
30 | AACACUGGCAAAGCCGGUCCCAAGCCCGGAUAAAAGUGGAGGGGGCGG [C8G U12A] | 0.609
31 | AACACUGGCAACGCCGGUCCCAAGCCCGGAUAAAAGUGGAGGGGGCGG [C8G U12C] | 0.435
32 | AACACUGUCAAUGCCGGUCCCAAACCCGGAUAAAAGUGGAGGGGGCGG [C8U G24A] | 0.772
33 | AACACUGUCAAUGCCGGUCCCAACCCCGGAUAAAAGUGGAGGGGGCGG [C8U G24C] | 0.0664
34 | AACACUGUCAAUGCCGAUCCCAAGCCCGGAUAAAAGUGGAGGGGGCGG [C8U G17A] | 0.119
35 | AACACUGUCAAUGCCGCUCCCAAGCCCGGAUAAAAGUGGAGGGGGCGG [C8U G17C] | 0.0682
36 | AACACUGUCAAUGCCGUUCCCAAGCCCGGAUAAAAGUGGAGGGGGCGG [C8U G17U] | 0.0946
37 | AACACUGUAAAUGCCGGUCCCAAGCCCGGAUAAAAGUGGAGGGGGCGG [C8U C9A] | 0.112
38 | AACACUGUCAAUGCCGGUCCCAAGCCCGGGUAAAAGUGGAGGGGGCGG [C8U A30G] | 0.766
39 | AACACUGUCAAUGCCGGUCCCAAGCCCGGCUAAAAGUGGAGGGGGCGG [C8U A30C] | 0.15
40 | AACACUGGCAAUUCCGGUCCCAAGCCCGGAUAAAAGUGGAGGGGGCGG [C8G G13U] | 0.194
41 | AACACUGGCAAUGCCGGUCCCAAGCCCGGAUUAAAGUGGAGGGGGCGG [C8G A32U] | 0.322
42 | AACACUGGCAAUGCCGGUCCGAAGCCCGGAUAAAAGUGGAGGGGGCGG [C8G C21G] | 0.0605
43 | AACACUGGCAAUGCCGGUCCCAAGCCCGGAUAAAAGUGGAGGGGGCGU [C8G G48U] | 0.263
44 | AACACUGGCAAUGCCGGUCCCAAGCCCGGAUAAAAGUGGAGGGGGCGC [C8G G48C] | 0.272
45 | AACACUGUCAAUGCCGGUCCCAAGCCCGGAUUAAAGUGGAGGGGGCGG [C8U A32U] | 0.515
46 | AACACUGUCAAUGCCGGUCCCAAGCCCGGAUGAAAGUGGAGGGGGCGG [C8U A32G] | 0.385
47 | AACACUGUCAAUGCCGGUCCCAAGCCCGGAUAAAACUGGAGGGGGCGG [C8U G36C] | 0.106
48 | AACACUGUCAAUGCCGGUCCCAAGCCCGGAUAAAAUUGGAGGGGGCGG [C8U G36U] | 0.109
49 | AACACUGUCAAUGCCGGUCCCAAGCCCGGAUAAAAAUGGAGGGGGCGG [C8U G36A] | 0.18
50 | AACACUGGCAAUGCCGGUCCCAAGCCCGAAUAAAAGUGGAGGGGGCGG [C8G G29A] | 0.3
51 | AACACUGGCAAUGCCGGUCCCAAGCCCGUAUAAAAGUGGAGGGGGCGG [C8G G29U] | 0.156
52 | AACACUGGCAAUGCCGGUCCCAAGCCCGCAUAAAAGUGGAGGGGGCGG [C8G G29C] | 0.077
53 | AACACUGGCAAUGCCGGUCCCAAGCUCGGAUAAAAGUGGAGGGGGCGG [C8G C26U] | 0.0555
54 | AACACUGGCAAUGCCGGUCCCAAGCACGGAUAAAAGUGGAGGGGGCGG [C8G C26A] | 0.0716
